# Molecular target: T1, human MSLN-FL-his protein (human, UniProt Q13421 296-580)
# T1 construct: also called human MSLN full-length protein; hMSLN-FL-his; not shown: His tag
# Experiment: ELISA, coated MSLN full-length;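 also: binding of chimeric antibodies to plate-bound antigen, read by TMB colour after acid stop, antibody incubated 2 h at 37 °C, negative control antibody run alongside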
# T1 sequence (Q13421 other isoform, or with tags, fused parts or gaps): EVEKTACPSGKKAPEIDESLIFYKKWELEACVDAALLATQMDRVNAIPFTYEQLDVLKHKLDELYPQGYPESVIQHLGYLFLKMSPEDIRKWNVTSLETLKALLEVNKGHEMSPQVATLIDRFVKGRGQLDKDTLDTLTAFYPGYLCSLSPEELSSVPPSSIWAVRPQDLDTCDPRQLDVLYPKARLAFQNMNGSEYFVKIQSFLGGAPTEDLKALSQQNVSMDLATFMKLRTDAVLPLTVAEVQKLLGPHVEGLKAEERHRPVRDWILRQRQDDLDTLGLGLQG
OD450 at 0.0001 nM,OD450 at 0.001 nM,OD450 at 0.01 nM,OD450 at 0.1 nM,OD450 at 1 nM,OD450 at 10 nM,OD450 at 100 nM,OD450 at none (no antibody),Binder
0.06 OD450,0.09 OD450,0.46 OD450,1.85 OD450,2.56 OD450,2.43 OD450,2.57 OD450,0.06 OD450,"S009-F2.38.12 (antibody, human IgG1, kappa, V domains shown, Human-murine chimeric antibody, human IgG1/kappa constant regions) VH: QVQLQQPGTELVKPGASVKLSCKASGYTFTSYWMHWVKQRPGQGLEWIGNINPSNGGTNYNEKIKNKATLTVDKSSSTAYMQLSSLTSEDSAVYYCARWNYYGNYPFDYWGQGTTLTVSS VL: DIVMTQSQKFMSTTVGDRVSITCKASQNVGTAVAWYQQKPGQSPKLLIYSASNRYTGVPDRFTGSGSGTDFTLTISNMQSEDLADYFCQQYSSYPLTFGAGTKLELKR"

# Molecular target: T2, human MSLN-FL-his protein (human, UniProt Q13421 296-580)
# T2 construct: made in HEK293E cells, purified on nickel column; also called hMSLN-FL-his; human MSLN full-length protein; not shown: His tag
# Experiment: SPR (Biacore), antibody captured on Protein A chip;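 also: flow cell at 25 °C, antigen injected for 240 s at five concentrations from 200 nM downward, dissociation followed up to 600 s, double-referenced, fitted with Langmuir 1:1 model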
# T2 sequence (Q13421 other isoform, or with tags, fused parts or gaps): as the sequence (Q13421 other isoform, or with tags, fused parts or gaps) above
Binder,Kd,koff,kon
"S009-F7.23.19 (antibody, human IgG1, kappa, V domains shown, human-murine chimeric antibody, human IgG1/kappa constant regions) VH: EVKLVESGGGLVQPGGSLSLSCAASGFTFTDYYMSWVRQPPGKALEWLGFIRSKANAYTTEYSASVKGRFTISRDNSQSILYLQMNDLRAEDSATYYCARYYYYGSGYVWYFDVWGTGTTVTVSS VL: DIVMTQSQKFMSTSVGDRVSVTCKASQSVGTNVAWYQQKPGQFPKALIYSASYRYSGVPDRFTGSGSGTDFTLTIINVQSEDLAEYFCQQYNSYPLTFGAGTKLELKR",13.6 nM,0.00695 s⁻¹,511000 M⁻¹ s⁻¹
"S009-F7.66.12 (antibody, human IgG1, kappa, V domains shown, human-murine chimeric antibody, human IgG1/kappa constant regions) VH: QIPLQQSGPELVKPGASVRISCKASDYAFSSSWMNWVKQRPEKGLEWIGRIFVESGNTHYNDKFNGKATLTADKSSRTAYIQLSSLTSEDSAVYFCTRENIFYHGHSSWFAYWGQGTLVTVSA VL: DIVLTQSPASLVVSLGQRATISCRAGESVDDFGISYVHWYQQKPGQPPKLLIYRAANLESGIPARFSGSGSRTDFTLTINPVETDDVAIYYCQQNNKDPFTFGSGTKLEIKR",13.1 nM,0.00236 s⁻¹,180000 M⁻¹ s⁻¹
"S009-F7.53.2 (antibody, human IgG1, kappa, V domains shown, human-murine chimeric antibody, human IgG1/kappa constant regions) VH: EVQLQQSGPELVKPGASVKIPCKTSGYTFTDYNMDWVKQSHGKSLEWIGDINPNTDGAIYNQKFQNKATLTVDKSSSTAYMELRSLTSEDTAVYYCTRRKLGRKFFDYWGQGTTLTVSS VL: QIVLTQSPAIMSASPGEQVTMTCSASSSVGYMNWYQQKPGSSPRLLIYDTSNLASGVPVHFSGSGSGTSYSLTISRMEAAFAATYYCQQWYVYPYTFGGGTKLEIKR",3.27 nM,0.00065 s⁻¹,199000 M⁻¹ s⁻¹
"S009-F7.30.5 (antibody, human IgG1, kappa, V domains shown, human-murine chimeric antibody, human IgG1/kappa constant regions) VH: QVQLQQPKTELVKPGASVKLSCKASGYIFTTYWMHWVKQRPGQGLEWIGNVNPSNGGTMYNEKFERRATLTVDKSSSTADMQLSSLTSEDSAVYYCVPHYIGSRPGFAYWGQGTLVTVSG VL: DIVMTQSQKFMSTSVGDRVSVTCKASQNVGTNVAWYQHKPGQSPKALLYSASYRYSGVPDRFTGSGSGTDFTLTITNVQSEDLAEYFCQQYNSYPLTFGGGTKLEIKR",3.83 nM,0.000705 s⁻¹,184000 M⁻¹ s⁻¹
"S009-F7.33.24 (antibody, human IgG1, kappa, V domains shown, human-murine chimeric antibody, human IgG1/kappa constant regions) VH: QVQLQQPGTELVKPGASVKLSCKASGYTFTSYWMHWVKQRPGQGLEWIGNVNPSNGGSNYNEKFKNKATLTVDKSSSTADMQLNSLTSEDSAVYYCAPHYIGSRPGFAYWGQGTLVTVSG VL: DIVMTQSQKFMSTSVGDRVSVTCKASQNVGTNIAWYQQKPGQSPKALIYSASYRYSGVPDRFTGSGSGTDFTLTITNVQSEDLAEYFCQQYNSYPLTFGGGTKVEIKR",10.2 nM,0.00506 s⁻¹,498000 M⁻¹ s⁻¹
"S009-F7.48.1 (antibody, human IgG1, kappa, V domains shown, human-murine chimeric antibody, human IgG1/kappa constant regions) VH: QVQLQQPGTELVKPGASVKLSCKASGYTFTSYWMHWVKQRPGQGLEWIGNINPSNGGTNNNENFKSKATLTVDTSSSTAYMQLSSLTSEDSAVYYCVRNGYHGYWYFDVWGTGTTVTVSS VL: DIVMTQSQKFMSTSVGDRVSVTCKASQNVGTNVAWYQQQPGQSPKALIYSASYRYSGVPDRFTGSVSGTDFTLTISNVQSEDLAEYFCQQYNSYPLTFGGGTKLEIKR",17.8 nM,0.000413 s⁻¹,23100 M⁻¹ s⁻¹
"S009-F7.44.20 (antibody, human IgG1, kappa, V domains shown, human-murine chimeric antibody, human IgG1/kappa constant regions) VH: EVQLQQSGPELVKPGASVKIPCKASGYTFTDYNMDWVKQSHGKSLEWIGDINPSTGGTIYNQKFNGKATLTEDKSASTVYMEFRSLTSDDTAVYYCARRRIGTGYFDVWGTGTTVTVSS VL: QIVLTQSPALMSASPGEKVTLTCSASSSVISSYLSWYQQKPGSSPKLLIYRTSNLASGVPARFSGSGSGTSYSLTISSMEAEDAASYFCHQWSSFPYTFGGGTKLEIKR",3.01 nM,0.00106 s⁻¹,351000 M⁻¹ s⁻¹
"S009-F7.61.21 (antibody, human IgG1, kappa, V domains shown, human-murine chimeric antibody, human IgG1/kappa constant regions) VH: DVQLQQSGPELVEPGASVRIPCKAAGHTFTDYNVDWVKQSHGQSLEWIGDVNPNTDGAIYNQKFEGKATLTVDTSSSTAYMELRSLTSEDTAVYFCARRRLGQGGFDSWGQGTTLTVSS VL: QVVLTQSPAIMSASPGEKVTLTCGASSSLISKYLYWYQQKPGSSPKLWIYSTSNLASGVPARFSGSGSGTSYSLTISSMEAEDAASYFCHQWSSYPYTFGGGTKVEIKR",5.03 nM,0.00154 s⁻¹,306000 M⁻¹ s⁻¹
"S009-F7.12.13 (antibody, human IgG1, kappa, V domains shown, human-murine chimeric antibody, human IgG1/kappa constant regions) VH: EVQLQQSGPELVKPGASVKIPCKASGYTFTDYNMDWVKQSHGKGLEWIGDINPNTDDTIYNQKFNGKATLTVDKSSSTAYMELRSLTSEDTAVYYCSRRLIGTGYFDVWGTGTTVTVSS VL: QIVLTQSPAIMSASPGEKVTLTCSASSSVISTYLCWYRQKPGSSPELWIYSTSNLASGVPARFSGSGSGTSYSLTISSMEAEDAASYFCHQWSNYPYTFGGGTKLGMKR",40.5 nM,0.00892 s⁻¹,220000 M⁻¹ s⁻¹
"S009-F7.69.8 (antibody, human IgG1, kappa, V domains shown, human-murine chimeric antibody, human IgG1/kappa constant regions) VH: EVHLQQSGPELVKPGASVRIPCKASGYTFTDYNMDWVKQSHGKSLEWIGDINPDNGGTIYTQKFKGKATLTVDKSSSTAYMELRSLTSEDTAVYYCARRLHYYGSSGLDYWGQGTTLTVSS VL: DIQMTQSPASLSAYVGETVTITCRASGNIHNYLAWYQQKQGKSPQLLVYNAKTLADGVPSRFSGSGSGTQYSLKINSLQPEDFGSYYCQHFWSTVWTFGGGTKLEIKR",6.51 nM,0.00447 s⁻¹,687000 M⁻¹ s⁻¹

# Other lines, results leading:
Kd,koff,kon,Binder
2.71 nM,0.00113 s⁻¹,417000 M⁻¹ s⁻¹,"S009-F7.25.19 (antibody, human IgG1, kappa, V domains shown, human-murine chimeric antibody, human IgG1/kappa constant regions) VH: QVQLQQPGTELVKPGASVKLSCKASGYTFTSYWMHWVKQRPGQGLEWIGNIIPSNGGTKYNEKFKSKATLTVDKSSSTAYMQLSSLTSEDSAVYYCSPHYYGGSPGFAYWGQGTLITVSA VL: DIVMTQSQKFMSTSVGDRVSVICKASQNVGTNVAWYQQKPGQSPKALIYSASYRYSGVPDRFTGSGSGTDFTLTISNVQSEDLAEYFCQQYNSYPLTFGGGTKLEIKR"
1.69 nM,0.000773 s⁻¹,458000 M⁻¹ s⁻¹,"S009-F7.21.16 (antibody, human IgG1, kappa, V domains shown, human-murine chimeric antibody, human IgG1/kappa constant regions) VH: QVQLQQPGTELVKPGASVKLSCKASGYTFTTFWMHWVKQRPGQGLEWIGGVNPTNGGTNYNEKFRTKATLTVDKSSTTADMQLSSLTSEDSAVYYCAPHYISSRPGFAYWGQGTLVTVSG VL: DIVMTQSQKFMSTSGGDRVSVTCKASQNVGTNVAWYQQKPGQSPKALIYSASYRYSGVPDRFTGSGSGTDFILTISNVQSEDLAEYFCQQYNSYPLTFGGGTKLEIKR"
1.44 nM,0.000538 s⁻¹,374000 M⁻¹ s⁻¹,"S009-F7.65.13 (antibody, human IgG1, kappa, V domains shown, human-murine chimeric antibody, human IgG1/kappa constant regions) VH: EVQLQQSGPELVKPGTSVKILCKASGDTFTAYNMDWVKQRHGQSLEWIGDINPNTDSTIYNQKFEGKAILTVDKSSSTAYMELRSLTSEDTAVYYCARRKLGRGYFDYWGQGTTLTVSS VL: QIVLTQSPAIMSASPGEKVTMTCSVNLSVRYIYWYQQKPGSSPRLLIHDTSNLASGVPVRFSGSGSGTSYSLTISRMEAEDAATYYCQQWSSFPYTFGGGTKLEIKR"
1.18 nM,0.000389 s⁻¹,329000 M⁻¹ s⁻¹,"S009-F7.6.17 (antibody, human IgG1, kappa, V domains shown, human-murine chimeric antibody, human IgG1/kappa constant regions) VH: QVQLQQSGAELARPGASVKMSCKASGYTFTTYTMHWVKQRPGQGLEWIGYISPTGDFTKYNQKFKDKATLTTDKSSNTAFMQLSSLTSEDSAVYYCARWNGTVWFAYWGQGTLVTVSA VL: DIVMTQSQKFMSTSVGDRVTVTCKASQALGTNVAWYQQKPGQSPKVLIYSASYRYSGVPYRFAGGGSGTDFTLTITNVQSEDLAEYFCQQYNNYPLTFGAGTKLELKR"
0.602 nM,0.00065 s⁻¹,1.08e+06 M⁻¹ s⁻¹,"S009-F7.67.12 (antibody, human IgG1, kappa, V domains shown, human-murine chimeric antibody, human IgG1/kappa constant regions) VH: QVQLQQPGTELVKPGASVRLSCRASGYSFSSYWMHWVKQRPGQGLEWLGNINPTTGDINYNEKFRNRATLAVDKSSTTAYLQLTSLTSEDSAVYFCVRHDGFLWGQGTTLTVSS VL: DIQMTQSPASLSASVGETVTITCRASENIYSYLAWYQQKQGKSPQLLVYYAKTLAEGVSSRFSGSGSGTQFSLKINSLQPEDFGTYYCQHQFGTPRTFGGGTKLEIRR"
0.418 nM,8.35e-05 s⁻¹,200000 M⁻¹ s⁻¹,"S009-F7.41.18 (antibody, human IgG1, kappa, V domains shown, human-murine chimeric antibody, human IgG1/kappa constant regions) VH: QVQLQQPGTELVKPGASVKLSCKASDYTFTSYWMHWVKQRPGQGLEWIGSINPSNGDTYYNEKFKNKATLTVDKSSSTAYMQLSSLTSDDSAVYYCARGWYFDVWGTGTTVTVSS VL: not shown"
0.2 nM,0.000975 s⁻¹,4.88e+06 M⁻¹ s⁻¹,"S009-F7.26.15 (antibody, human IgG1, kappa, V domains shown, human-murine chimeric antibody, human IgG1/kappa constant regions) VH: DVQLQESGPGLVKPSQTVFLTCTVTGISITTGNYRWSWIRQFPGNKLEWIGYIYYTGFITYNPSLTSRTTITRDTPKNQFFLEMKSLTAEDTATYYCARDDYDYDVFAYWGQGTLVTVSA VL: DIQMTQSPASLSASVGETVTITCRASGNIHNYLAWYHQKQGKSPQFLVYKAKTLADGVPSRFSGSGSGTQYSLKINRLQPEDFGSYYCQHFLSIPLTFGAGTKLELKR"
0.181 nM,0.00024 s⁻¹,1.33e+06 M⁻¹ s⁻¹,"S009-F7.11.11 (antibody, human IgG1, kappa, V domains shown, human-murine chimeric antibody, human IgG1/kappa constant regions) VH: EVQLQQSGPELVKPGASVKIPCKASGYTITDYNMDWVKQSRGKSLEWIGDVFPYNGDSIYNQKFEGRATLTVDKYSSTAYMELRGLTSEDTAVYFCARRKTGTGYFDVWGTGTTVTVSS VL: QLVLTQSPAIMSASPGEKVTLTCSASSSVSSTYLSWYLQKPGSSPKLWIYSTSNLASGVPARFSGSGSGTSYSLTISSMEAEDAASYFCHQWSSYPYTFGGGTKLEIKR"

# — patent publication US20250250357A1 (NANJING ZAIMING PHARMACEUTICAL, published 2025)
